Measured values: patent CN112457402A (BEIJING NIUAMBO BIOTECHNOLOGY CO LTD, dated 2021)

T1: Human CEACAM6 Protein, Human, Recombinant (His Tag) (human, UniProt P40199 35-320, biotinylated in Example 6 (Bio-CEACAM6), site not stated)
T1 construct: Bought recombinant antigen; also called CEACAM6抗原; 人CEACAM6抗原
T1 sequence (looked up): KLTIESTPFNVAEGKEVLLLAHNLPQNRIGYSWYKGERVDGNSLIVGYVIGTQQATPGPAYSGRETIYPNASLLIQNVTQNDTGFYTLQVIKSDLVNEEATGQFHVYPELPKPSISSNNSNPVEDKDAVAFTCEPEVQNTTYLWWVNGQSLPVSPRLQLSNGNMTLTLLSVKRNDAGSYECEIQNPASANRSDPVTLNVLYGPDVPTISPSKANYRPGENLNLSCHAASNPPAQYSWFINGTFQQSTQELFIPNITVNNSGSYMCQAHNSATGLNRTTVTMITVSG


Molecular target: T1, Human CEACAM6 Protein, Human, …
Assay: phage ELISA, phage-displayed VHH supernatant on coated CEACAM6

Row | Binder | binding result
1 | 单域抗体NBC4 (VHH) VHH: HVQLVESGGGLVQAGGSLRLSCAVSGSIFSNDVMGWYRQAPGKQRELVAFITNGGVAHSKDPEKGRFTISRDNGKNTVYLQMNSLKPDDTAVYYCNVRSLVERSREYWGQGTQVTVSS | binds
2 | 单域抗体NBC6 (VHH) VHH: QVKLEESGGGLVQAGGSLRLSCAVSGSIFSNDVMGWYRQAPGKQRELVAFITNEGVAHSKDPVKGRFTISRDNGKNTVYLQMNSLKPDDTAVYYCNVRSLVERSREYWGQGTQVTVSS | binds
3 | 单域抗体NBC5 (VHH) VHH: QVKLEESGGGLVQAGGSLRLSCAASGDIDRNDVMHWYRQAPGKQRELVAWIANNGATNYADSVKGRFTISRDNAKNTVYLQMNSLKPEDTAVYYCNVRSLVRRSRDYWGQGTQVTVSS | binds
